For one protein, Tm results are on record in FireProtDB (doi:10.1021/bi500238q).

The conditions of the series: Geobacillus kaustophilus (strain HTA426), pH 7, Thermal, CD, Potassium Phosphate Buffer 10 mM, whole UniProt chain shown.

B1: Dihydrofolate reductase wild type, Q5KZ26 (protein)
chain: MISHIVAMDENRVIGKDNRLPWHLPADLAYFKRVTMGHAIVMGRKTFEAIGRPLPGRDNVVVTRNRSFRPEGCLVLHSLEEVKQWIASRADEVFIIGGAELFRATMPIVDRLYVTKIFASFPGDTFYPPISDDEWEIVSYTPGGKDEKNPYEHAFIIYERKKAK
For orientation: Tm means the temperature at the midpoint of the melting transition. On to B1, for which the Tm is, setting by setting: (KCl 0.1 M) 66.9 °C; (KCl 0.2 M) 67.9 °C; (KCl 0.5 M) 68.3 °C; (KCl 1 M) 70.1 °C; (KCl 1.5 M) 71.7 °C; (KCl 2 M) 73.8 °C. Besides, the Tm is 66.8 °C (KF 0.1 M); 67.5 °C (KF 0.2 M); 68.6 °C (KF 0.5 M); 71 °C (KF 1 M); 73.8 °C (KF 1.5 M); 74.6 °C (KF 2 M). The Tm came out at 66.8 °C (NaCl 0.1 M); 67.2 °C (NaCl 0.2 M); 67.6 °C (NaCl 0.5 M); 69.5 °C (NaCl 1 M); 71.5 °C (NaCl 1.5 M); 73.4 °C (NaCl 2 M).
